Consider three molecules from patent US20230203162A1 (NUMAB THERAPEUTICS, published 2023).

Experiment [1] has as its target human serum albumin (hSA, Sigma-Aldrich A3782) (human, UniProt P02768 25-609). Nature of the experiment: SPR, hSA amine-coupled to CM5, antibody injected, pH 5.5, 1:1 Langmuir.
Experiment [2] addresses T1, plasma-membranous human MSLN on cell lines (H226, HPAC, H292, OVCAR-3, MeT-5A) (human, UniProt Q13421 296-598).
T1 construct: whole, on cells; also called human MSLN on H226 cells; mesothelin on target cells
Briefly: flow cytometry on Met-5A cells, protein L-PE, 4PL fit.

The target in experiment [3] is T1, plasma-membranous human MSLN on cell …. Nature of the experiment: flow cytometry on OVCAR-3 cells, protein L-PE, 4PL fit.
For experiment [4] the target is unchanged. Nature of the experiment: cell-based or functional assay.
In experiment [5] the target is soluble mesothelin (sMSLN). Nature of the experiment: cell-based or functional assay.
In experiment [6] the target is T1, plasma-membranous human MSLN on cell …. Briefly: flow cytometry on H226 cells, protein L-PE, 4PL fit.
Experiment [7] addresses T2, human recombinant CD3ε protein (Sino Biological) (human, UniProt P07766 23-126).
T2 construct: Bought protein; also called recombinant human CD3ε; human CD3ε
Nature of the experiment: SPR, CD3ε amine-coupled to CM5, antibody injected.

Experiment [8] concerns the target T3, recombinant human MSLN (purchased from Peprotech) (human, UniProt Q13421 296-598, limits assumed).
T3 construct: Bought protein; also called recombinant human mesothelin
Briefly: SPR (Biacore T200), human MSLN; which of the two formats (MSLN immobilized / antibody captured) not given.

B1: PRO2660 (MATCH4) (other)
chain 1: DIQMTQSPSSLSASVGDRVTITCQASESIYSSLAWYQQKPGKAPKLLIYLASTLASGVPSRFSGSGSGTDFTLTISSLQPEDFATYYCQSTDYTTSTHRNSFGTGTKVTVLGGGGGSGGGGSGGGGSGGGGSEVQLVESGGGLVQPGGSLRLSCAASGFSFSTTYYMCWVRQAPGKGLEWIGCTNTASSVRTYYATWAKGRFTISRDNSKNTVYLQMNSLRAEDTAVYYCARDMGFADYALNLWGQGTLVTVSSGGGGSGGGGSEVQLVESGGGLVQPGGSLRLSCAASGFSLSSYDMSWVRQAPGKGLAWIGASYASGPTYYASWAKGRFTISRDNSKNTVYLQMNSLRAEDTATYFCARGGWTGTSHSNIWGQGTLVTVSSGGGSGGGSGGGSGEVQLVESGGGLVQPGGSLRLSCAASGFSLSSYAMNWVRQAPGKCLEWIGHINAGDIAYYATWAKGRFTISRDNSKNTVYLQMNSLRAEDTAVYFCARGAGGFSTGPFKLWGQGTLVTVSS
chain 2: DIQMTQSPSSLSASVGDRVTITCQASESIYSSLAWYQQKPGKAPKLLIYLASTLASGVPSRFSGSGSGTDFTLTISSLQPEDFATYYCQSTDYTTSTHRNSFGTGTKVTVLGGGGGSGGGGSGGGGSGGGGSEVQLVESGGGLVQPGGSLRLSCAASGFSFSTTYYMCWVRQAPGKGLEWIGCTNTASSVRTYYATWAKGRFTISRDNSKNTVYLQMNSLRAEDTAVYYCARDMGFADYALNLWGQGTLVTVSSGGGGSGGGGSAFELTQSPSSLSASVGDRVTITCQASESINSRLAWYQQKPGQPPKLLIYDASDLTSGVPSRFSGSGSGTDFTLTISSLQPEDFATYYCQGYGGSSTTTFGCGTKLTVLGGGSGGSDIQMTQSPSSLSASVGDRVTITCQSSQSVFSNNYLAWFQQKPGQSPKRLIYSASTLASGVPSRFSGSGSGTDFTLTISSLQPEDFATYYCLGSYACSSADCYVFGTGTKVTVLG
notes: Heterodimer
For the molecule B1, in experiment [1], binding was characterised by a dissociation constant (Kd) of 5.71 nM, the koff worked out at 0.0016 s⁻¹ and the kon came out at 280000 M⁻¹ s⁻¹. In addition, in experiment [2], the EC50 was found to be 0.157 nM and the “max. binding (MFI)” value came out at 14500 MFI. In addition, in experiment [3], a half-maximal response (EC50) required 10.7 nM and the “max. binding (MFI)” value turned out to be 198000 MFI. Also, in experiment [4], the “Fold-diff Window (mean Met-5A EC50 / mean H226 EC50)” value turned out to be 1.7 fold; the “average mean H226 EC50, cell killing (LDH release)” value (from here on “average mean H226 EC50”) was 0.0285 nM; the “average mean Met-5A EC50, cell killing (LDH release)” value (shortened to “average mean Met-5A EC50”) amounted to 0.0485 nM. In experiment [5], the “Delta 0-50 ng/mL sMSLN (x-fold change in H226 killing potency)” value worked out at 12 fold and the “Delta 0-500 ng/mL sMSLN (x-fold change in H226 killing potency)” value came out at 85.1 fold. For the same molecule, in experiment [6], the EC50 turned out to be 1.08 nM and the “max. binding (MFI)” value worked out at 686000 MFI. Further, in experiment [7], the Kd amounted to 5.71 nM.

B2: PRO2567 (MATCH4) (other)
chain 1: AFELTQSPSSLSASVGDRVTITCQASESINSRLAWYQQKPGQPPKLLIYDASDLTSGVPSRFSGSGSGTDFTLTISSLQPEDFATYYCQGYGGSSTTTFGTGTKLTVLGGGGGSGGGGSGGGGSGGGGSEVQLVESGGGLVQPGGSLRLSCAASGFSLSSYAMNWVRQAPGKGLEWIGHINAGDIAYYATWAKGRFTISRDNSKNTVYLQMNSLRAEDTAVYFCARGAGGFSTGPFKLWGQGTLVTVSSGGGGSGGGGSEVQLVESGGGLVQPGGSLRLSCAASGFSLSSYDMSWVRQAPGKGLAWIGASYASGPTYYASWAKGRFTISRDNSKNTVYLQMNSLRAEDTATYFCARGGWTGTSHSNIWGQGTLVTVSSGGGSGGGSGGGSGQSQLVESGGGLVQPGGSLRLSCAVSGFSLSSYAMGWVRQAPGKCLEYIGYISKIGTTYYASWAKGRFTISKDNSKNTVYLQMNSLRAEDTAVYFCARGSSSGGYLDDGFDPWGQGTLVTVSS
chain 2: ALQMTQSPSSLSARVGDRVTIKCQASQSISNYLAWYQQKPGKPPKFLIYDASDLASGVPSRFSGSGSGRDFTLTISSLQPEDFATYYCQQVYDSNNVENVFGCGTKVTVLGGGGGSGGGGSGGGGSGGGGSQSQLVESGGGLVQPGGSLRLSCAVSGFSLSSYAMGWVRQAPGKCLEYIGYISKIGTTYYASWAKGRFTISKDNSKNTVYLQMNSLRAEDTAVYFCARGSSSGGYLDDGFDPWGQGTLVTVSSGGGGSGGGGSALQMTQSPSSLSARVGDRVTIKCQASQSISNYLAWYQQKPGKPPKFLIYDASDLASGVPSRFSGSGSGRDFTLTISSLQPEDFATYYCQQVYDSNNVENVFGCGTKVTVLGGGSGGSDIQMTQSPSSLSASVGDRVTITCQSSQSVFSNNYLAWFQQKPGQSPKRLIYSASTLASGVPSRFSGSGSGTDFTLTISSLQPEDFATYYCLGSYACSSADCYVFGTGTKVTVLG
notes: Heterodimer
In experiment [1], B2 yielded a Kd of 8.8 nM, a koff of 0.00453 s⁻¹ and a kon of 515000 M⁻¹ s⁻¹. Besides, in experiment [2], the EC50 was found to be 0.0824 nM and the “max. binding (MFI)” value was 11200 MFI. For the same molecule, in experiment [3], the response was half-maximal at 6.64 nM (EC50) and the “max. binding (MFI)” value turned out to be 170000 MFI. Besides, in experiment [8], the Kd is 1.41 nM, the koff is 0.000578 s⁻¹ and the kon was found to be 411000 M⁻¹ s⁻¹. In addition, in experiment [4], the “Fold-diff Window (mean Met-5A EC50 / mean H226 EC50)” value was found to be 28.5 fold; the “average mean H226 EC50” value was determined as 0.00346 nM; the “average mean Met-5A EC50” value stood at 0.0987 nM. In experiment [5], the “Delta 0-50 ng/mL sMSLN (x-fold change in H226 killing potency)” value came out at 3.2 fold and the “Delta 0-500 ng/mL sMSLN (x-fold change in H226 killing potency)” value stood at 23.8 fold. For the same molecule, in experiment [6], the EC50 came out at 0.611 nM and the “max. binding (MFI)” value is 809000 MFI. Besides, the Kd in experiment [7] came to 4.78 nM.

B3: PRO2566 (MATCH4) (other)
chain 1: AFELTQSPSSLSASVGDRVTITCQASESINSRLAWYQQKPGQPPKLLIYDASDLTSGVPSRFSGSGSGTDFTLTISSLQPEDFATYYCQGYGGSSTTTFGTGTKLTVLGGGGGSGGGGSGGGGSGGGGSEVQLVESGGGLVQPGGSLRLSCAASGFSLSSYAMNWVRQAPGKGLEWIGHINAGDIAYYATWAKGRFTISRDNSKNTVYLQMNSLRAEDTAVYFCARGAGGFSTGPFKLWGQGTLVTVSSGGGGSGGGGSEVQLVESGGGLVQPGGSLRLSCAASGFSLSSYDMSWVRQAPGKGLAWIGASYASGPTYYASWAKGRFTISRDNSKNTVYLQMNSLRAEDTATYFCARGGWTGTSHSNIWGQGTLVTVSSGGGSGGGSGGGSGQSQLVESGGGLVQPGGSLRLSCAVSGFSLSSYAMGWVRQAPGKCLEYIGYISKIGTTYYASWAKGRFTISKDNSKNTVYLQMNSLRAEDTAVYFCARGSSSGGYLDDGFDPWGQGTLVTVSS
chain 2: ALQMTQSPSSLSARVGDRVTIKCQASQSISNYLAWYQQKPGKPPKFLIYDASDLASGVPSRFSGSGSGRDFTLTISSLQPEDFATYYCQQVYDSNNVENVFGCGTKVTVLGGGGGSGGGGSGGGGSGGGGSQSQLVESGGGLVQPGGSLRLSCAVSGFSLSSYAMGWVRQAPGKCLEYIGYISKIGTTYYASWAKGRFTISKDNSKNTVYLQMNSLRAEDTAVYFCARGSSSGGYLDDGFDPWGQGTLVTVSSGGGGSGGGGSALQMTQSPSSLSARVGDRVTIKCQASQSISNYLAWYQQKPGKPPKFLIYDASDLASGVPSRFSGSGSGRDFTLTISSLQPEDFATYYCQQVYDSNNVENVFGCGTKVTVLGGGSGGSGGSGGSGDIQMTQSPSSLSASVGDRVTITCQSSQSVFSNNYLAWFQQKPGQSPKRLIYSASTLASGVPSRFSGSGSGTDFTLTISSLQPEDFATYYCLGSYACSSADCYVFGTGTKVTVLG
notes: Heterodimer
Take B3: in experiment [1], the affinity, expressed as Kd, was 6.89 nM; the off-rate (koff) amounted to 0.00399 s⁻¹; the kon came out at 579000 M⁻¹ s⁻¹. Also, in experiment [2], the EC50 is 0.106 nM and the “max. binding (MFI)” value was 12100 MFI. Also, in experiment [3], the EC50 was found to be 5.13 nM and the “max. binding (MFI)” value turned out to be 154000 MFI. In addition, in experiment [8], the Kd stood at 1.52 nM, the koff is 0.000608 s⁻¹ and the kon came to 400000 M⁻¹ s⁻¹. In experiment [4], the “Fold-diff Window (mean Met-5A EC50 / mean H226 EC50)” value turned out to be 436 fold; the “average mean H226 EC50” value was 0.00609 nM; the “average mean Met-5A EC50” value was 2.66 nM. In experiment [5], the “Delta 0-50 ng/mL sMSLN (x-fold change in H226 killing potency)” value was found to be 3.1 fold and the “Delta 0-500 ng/mL sMSLN (x-fold change in H226 killing potency)” value is 14.2 fold. Besides, in experiment [6], the EC50 amounted to 0.564 nM and the “max. binding (MFI)” value stood at 757000 MFI. The Kd in experiment [7] is 2.97 nM.
